Results on two molecules are retold here after patent publication US20220396632A1 (VERSEAU THERAPEUTICS, published 2022).

Non-standard residues stand in square brackets, D forms with d. No end group written: not given here. *: point of attachment. Biotin = O=C1N[C@H]2[C@H](CS[C@H]2CCCCC(=O)*)N1; sY = N[C@@H](Cc1ccc(OS(=O)(=O)O)cc1)C(=O)O

For experiment [1], the target named is T1, Recombinant human PSGL-1(ECD)-hFc1 (R&D Systems, Cat. 3345-PS) (human, UniProt Q14242 42-305).
T1 construct: Bought; Gln42-Val295 counted on AAC50061; also called PSGL-1-Fc; PSGL-1-hFc1 chimera; not shown: human IgG1 Fc, Pro100-Lys330
T1 sequence: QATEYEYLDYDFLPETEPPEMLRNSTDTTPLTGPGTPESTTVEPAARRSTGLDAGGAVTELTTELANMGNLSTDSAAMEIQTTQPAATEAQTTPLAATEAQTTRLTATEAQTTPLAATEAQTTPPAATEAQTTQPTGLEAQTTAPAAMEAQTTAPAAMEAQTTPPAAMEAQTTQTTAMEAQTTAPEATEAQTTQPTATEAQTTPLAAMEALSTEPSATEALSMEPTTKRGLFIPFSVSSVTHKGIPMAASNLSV
Description: Octet tandem; competitor 19N05. As for the experimental part:
(§1) Antibody binning was performed by ForteBio Octet® using a tandem assay format, with anti-human IgG biosensor-immobilized PSGL-1(ECD)-hFc1 protein, binding of competitor mAb followed by analyte antibody. As competition controls, the same antibody was competed against itself, and mAb competition was performed bidirectionally.
(§2) Antibody binning by tandem octet was performed by immobilizing 10 ug/mL PSGL-1(ECD)-hFc1 (R&D Systems, Cat. #3345-PS) in PBS, pH 7.4, onto anti-human IgG capture biosensors (ForteBio, Cat. #18-5060), binding of 100 nM competitor antibody for 300 sec., followed by binding of 100 nM of analyte mAb for 300 s in kinetic buffer (0.1% BSA in PBS containing 0.02% tween 20 and 0.05% sodium azide, pH 7.4). Synagis (Johnson et al. (1997) J. Infect. Dis. 176:1215-1224) served as a negative control mAb for competition. An Fc quench step (0.25 mg/mL human IgG Fcl; BioXcell, Cat. #BE0096, in kinetic buffer) was included when human mAbs were tested to prevent high background from the antibodies binding to the anti-human IgG biosensor. Biosensor regeneration buffer consisted of 10 mM glycine, pH 2.0.
On the technique in general: BLI is a label-free optical method that tracks binding on a fibre tip over time.

For experiment [2], the target named is T1, Recombinant human PSGL-1(ECD)-hFc1 (R&D …). The experiment can be described thus: Octet tandem; competitor 15A7. As for the experimental part:
as §1, §2

The target is the same in experiment [3]. Description: Octet tandem; competitor 20G13. As for the experimental part:
as §1, §2

Experiment [4] has the same target. Description: Octet tandem; competitor 16E17. As for the experimental part:
as §1, §2

Experiment [5] shares this target. Description: Octet tandem; competitor 18F17. On the procedure:
as §1, §2

Experiment [6] shares this target. The experiment can be described thus: Octet tandem; competitor 19J23. On the procedure: as §1, §2
For experiment [7] the target is unchanged. Description: Octet tandem; competitor 18K07. As for the experimental part:
as §1, §2

The target of the next experiment is T2, 42-80 (C-terminal Lys-biotin).
T2 construct: also called Biotin PSGL-1(42-80) peptide
T2 peptide: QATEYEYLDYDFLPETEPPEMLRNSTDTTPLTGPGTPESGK
Description: ELISA, streptavidin-immobilized biotin peptide. As for the experimental part:
(§3) A typical ELISA experiment involved binding of a single concentration or serially diluted mAb in assay buffer (3% BSA in PBS containing 0.05% Tween®20, pH 7.4) onto BSA blocked high binding microtiter plate half-wells (Corning Cat. #3690), which contained PSGL-1 protein or streptavidin-immobilized biotin peptide. After incubation for 45 min. at 37° C., the plate was washed 3 times with wash buffer (PBS containing 0.05% Tween®20, pH 7.4), and an appropriate HRP-conjugated secondary antibody added (25 ul/well) (HRP goat anti-mouse or anti-human IgG). After 45 min. incubation at 37° C., the plate was washed and antibody bound to plate-immobilized target was determined at A450 nm using HRP substrate (3,3′5,5′-tetramethylbenzidine (TMB)). For each antibody, duplicate values were averaged and assay background subtracted.
In general terms: An ELISA detects its analyte on a solid surface through an enzyme-linked reagent.

Experiment [8] addresses T3, Biotin PSGL-1(42-62) peptide, unmodified (human, C-terminal Lys-biotin).
T3 construct: Residues 42-62 followed by GGGK-biotin; also called WT; wild-type
T3 peptide: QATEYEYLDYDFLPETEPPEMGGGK
Description: ELISA, streptavidin-immobilized biotin peptide. On the procedure: as §3

Experiment [9] has as its target T4, Biotin PSGL-1(105-125) peptide (human, N-terminal acetyl; C-terminal Lys-biotin).
T4 peptide: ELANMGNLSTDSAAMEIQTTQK
Description: ELISA, streptavidin-immobilized biotin peptide. On the procedure: as §3

Experiment [10] deals with T5, Biotin PSGL-1(290-310) peptide (human, N-terminal acetyl; C-terminal Lys-biotin).
T5 peptide: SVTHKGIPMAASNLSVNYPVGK
The experiment can be described thus: ELISA; against WT PSGL-1(ECD)-hFc1. As for the experimental part: as §3

The target of experiment [11] is PSGL-1(ECD)-hFc1 M119A protein (Sino Biological) (human). The experiment can be described thus: ELISA; against WT PSGL-1(ECD)-hFc1. On the procedure: as §3
The target in experiment [12] is PSGL-1(ECD)-hFc1 S116A protein (Sino Biological) (human). Description: ELISA; against WT PSGL-1(ECD)-hFc1. On the procedure:
as §3

Experiment [13] concerns the target PSGL-1(ECD)-hFc1 I121A protein (Sino Biological) (human). Description: ELISA; against WT PSGL-1(ECD)-hFc1. On the procedure: as §3
The target of experiment [14] is T5, Biotin PSGL-1(290-310) peptide. Description: ELISA, plate-bound peptide or protein. On the procedure:
as §3

For experiment [15], the target named is PSGL-1(ECD)-hFc1 M119A protein (Sino Biological) (human). Description: ELISA, plate-bound peptide or protein. As for the experimental part: as §3
The target in experiment [16] is PSGL-1(ECD)-hFc1 S116A protein (Sino Biological) (human). Description: ELISA, plate-bound peptide or protein. On the procedure:
as §3

Experiment [17] addresses PSGL-1(ECD)-hFc1 I121A protein (Sino Biological) (human). The experiment can be described thus: ELISA, plate-bound peptide or protein. As for the experimental part: as §3
For the next experiment, the target named is T6, Human PSGL-1(ECD)-HIS (human, UniProt Q14242 42-319).
T6 construct: also called Human PSGL-1-His
T6 sequence: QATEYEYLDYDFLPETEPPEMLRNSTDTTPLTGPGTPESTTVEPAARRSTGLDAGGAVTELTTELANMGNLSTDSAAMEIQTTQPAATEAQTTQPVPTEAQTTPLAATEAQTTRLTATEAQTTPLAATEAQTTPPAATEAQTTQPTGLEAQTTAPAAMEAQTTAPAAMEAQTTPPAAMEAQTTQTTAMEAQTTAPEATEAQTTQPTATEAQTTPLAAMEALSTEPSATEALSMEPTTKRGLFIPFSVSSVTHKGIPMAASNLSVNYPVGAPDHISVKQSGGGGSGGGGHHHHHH
The experiment can be described thus: ELISA, plate-immobilized protein.

The target of experiment [18] is T1, Recombinant human PSGL-1(ECD)-hFc1 (R&D …). The experiment can be described thus: Octet tandem; competitor 19L04. On the procedure: as §1, §2
In experiment [19] the target is T7, Sulfotyrosine CCR2b biotin peptide (human).
T7 construct: also called CCR2b peptide
T7 peptide: TTFFD[sY]D[sY]GAPSHGGK(Biotin)
The experiment can be described thus: ELISA, plate-bound peptide.

The target in experiment [20] is T8, Biotin Y46,48,51(SO3) PSGL-1(42-62) peptide (human, sulfotyrosine at Y46, Y48 and Y51; C-terminal Lys-biotin).
T8 construct: also called fully sulfated N-terminal PSGL-1 peptide
T8 peptide: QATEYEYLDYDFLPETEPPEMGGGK
Description: ELISA, plate-bound peptide.

Sequence of PSGL-1(ECD)-hFc1 I121A protein (Sino Biological) (human) (chain, as listed by the source I121A I121A): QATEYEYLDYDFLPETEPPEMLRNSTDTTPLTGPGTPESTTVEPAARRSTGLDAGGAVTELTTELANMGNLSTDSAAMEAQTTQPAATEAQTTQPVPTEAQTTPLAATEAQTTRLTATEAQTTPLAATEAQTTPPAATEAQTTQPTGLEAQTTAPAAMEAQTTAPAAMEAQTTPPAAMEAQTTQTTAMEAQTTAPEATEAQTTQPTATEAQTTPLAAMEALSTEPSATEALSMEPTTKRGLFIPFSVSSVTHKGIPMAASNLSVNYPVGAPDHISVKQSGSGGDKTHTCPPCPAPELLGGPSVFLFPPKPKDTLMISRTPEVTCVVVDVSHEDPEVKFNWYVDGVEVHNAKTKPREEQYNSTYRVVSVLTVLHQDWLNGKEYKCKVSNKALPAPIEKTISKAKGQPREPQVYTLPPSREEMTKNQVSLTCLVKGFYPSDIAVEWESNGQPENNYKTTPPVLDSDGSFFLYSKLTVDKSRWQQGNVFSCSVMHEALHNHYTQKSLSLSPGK
Sequence of PSGL-1(ECD)-hFc1 M119A protein (Sino Biological) (human) (chain, as listed by the source M119A M119A): as the sequence (chain, as listed by the source I121A I121A) above, with M78A, A80I counted along it
Sequence of PSGL-1(ECD)-hFc1 S116A protein (Sino Biological) (human) (chain, as listed by the source S116A S116A): as the sequence (chain, as listed by the source I121A I121A) above, with S75A, A80I counted along it

B1: 18F17 (antibody, V domains shown)
VH: QVTLKESGPGILQPSQTLSLTCSFSGFSLSTFGMGVGWIRQPSGKGLEWLAHIWWDDDKYYNPALKSRLTISKDTSKNQVFLKIANVDTADTATYYCAIYYDYGVGFDYWGQGTTLTVSS
VL: DIVMTQAAPSVPVTPGESVSISCRSSKSLLHSNGYTFLYWFLQRPGQSPQLLIYRMSNLASGVPDRFSGSGSGTAFTLRISRVEAEDVGVYYCMQHLEYPFTFGTGTKLEIK
notes: Non-functional anti-PSGL-1 mAb (Verseau); only variable domains given
With B1, the “% binding of analyte mAb” value in [1] came out at 84.2%; in experiment [2], 61.9%; in [3], 22%; in experiment [4], 124%; in experiment [5], 28.2%; in experiment [6], 26.9%. For the same molecule, the “% binding of analyte mAb” value in [7] came to 90.7%; in experiment [18] it was 68.7%. Further, the binding result (in the experiment with 42-80; in [8]; in [9]) was “no binding (tested: 10 nM)” each time. Besides, the EC50/EC50WTprot in experiment [10] is under 1 fold; in [11], 0.74 fold; in [12] it was 0.67 fold; in experiment [13], 0.68 fold. Moreover, the EC50 in experiment [14] was under 0.5 nM; in experiment [15] it was 0.6 nM; in [16] it was 0.54 nM; in experiment [17] it was 0.55 nM. Moreover, the “EC50 (read off the curve)” value with Human PSGL-1(ECD)-HIS is about 0.7 nM.

B2: 06G08 (antibody, IgG4, V domains shown)
VH: EVKLLESGGGVVQPGGSLRLSCAVSGFTFSNYAMHWVRQAPGKGLEWVAVISFDGSNKYTADSVQGRFTISRDNSKNTLYLQMNSLTPEDTAVYYCASRIIRTVAGGDYWGQGTLVTVSS
VL: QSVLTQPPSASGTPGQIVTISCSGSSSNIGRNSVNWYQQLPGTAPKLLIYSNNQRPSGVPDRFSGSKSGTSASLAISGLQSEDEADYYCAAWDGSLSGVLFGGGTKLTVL
In the case of B2, in experiment [19], the binding result was “no binding (tested: 20 nM)”. Also, the EC50 in experiment [20] was 0.71 nM.

As usually defined, the EC50 is the concentration giving half of the maximal effect. Read a high EC50 as lower potency in that assay. By EC50 (read off the curve) is commonly meant the concentration at which the effect is half-maximal. Higher therefore signals a need for much substance.
